From FireProtDB (doi:10.1016/j.bbapap.2014.10.010) come the findings set out here.

The conditions of this series: Homo sapiens; pH 7.4; Thermal; DSC; Hepes 20 mM; NaCl 200 mM; transition: 2; reversible: No; whole UniProt chain shown.

B1: Alanine--glyoxylate aminotransferase wild type, P21549 (protein)
chain: MASHKLLVTPPKALLKPLSIPNQLLLGPGPSNLPPRIMAAGGLQMIGSMSKDMYQIMDEIKEGIQYVFQTRNPLTLVISGSGHCALEAALVNVLEPGDSFLVGANGIWGQRAVDIGERIGARVHPMTKDPGGHYTLQEVEEGLAQHKPVLLFLTHGESSTGVLQPLDGFGELCHRYKCLLLVDSVASLGGTPLYMDRQGIDILYSGSQKALNAPPGTSLISFSDKAKKKMYSRKTKPFSFYLDIKWLANFWGCDDQPRMYHHTIPVISLYSLRESLALIAEQGLENSWRQHREAAAYLHGRLQALGLQLFVKDPALRLPTVTTVAVPAGYDWRDIVSYVIDHFDIEIMGGLGPSTGKVLRIGLLGCNATRENVDRVTEALRAALQHCPKKKL
As usually defined, the Tm is the temperature at the midpoint of the melting transition. Regarding B1, the Tm is 82.1 °C and the “unfolding enthalpy (calorimetric)” value is 547 kcal/mol.
